Test results taken from the Human Domainome abundance scans (Beltran et al. 2025).
± gives the uncertainty stated by the source.

B1: Ankyrin repeat and SAM domain-containing protein 6, residues 774 to 836; numbered along this chain, Q68DC2 (parent)
chain: DEDELTGILKKLSLEKYQPIFEEQEVDMEAFLTLTDGDLKELGIKTDGSRQQILAAISELNAG

Variants of: B1
Assay: abundance fitness (aPCA) (normalised: wild type 0, dead -1); higher = more abundant; growth selection in yeast, the domain comes from the species named
Details: Homo sapiens

Abundance fitness: each site, then its substitutions
L12: Y 0.09 ± 0.45; R -0.538 ± 0.043; F 0.005 ± 0.11; T -0.35 ± 0.083; S -0.531 ± 0.057; Q -0.567 ± 0.095; I 0.254 ± 0.29; P -1.16 ± 0.16; N -0.402 ± 0.29; H 0.171 ± 0.09; C -0.023 ± 0.077
P19: F -0.285 ± 0.051; Q -0.21 ± 0.16; L -0.456 ± 0.072; R -0.116 ± 0.057; T -0.138 ± 0.078; W -0.208 ± 0.14; S -0.094 ± 0.04; I -0.509 ± 0.05; D -0.023 ± 0.083; Y -0.234 ± 0.054; N -0.059 ± 0.071; C -0.247 ± 0.057; G -0.116 ± 0.055; M -0.035 ± 0.15; V -0.346 ± 0.055; H 0.005 ± 0.048; K -0.416 ± 0.12; A -0.073 ± 0.068
G7: I 0.129 ± 0.11; A 0.042 ± 0.05; Q 0.177 ± 0.099; R 0.108 ± 0.045; Y -0.044 ± 0.11; N -0.092 ± 0.13; W -0.005 ± 0.063; P -0.111 ± 0.068; F -0.027 ± 0.12; H 0.185 ± 0.1; D 0.039 ± 0.092; K 0.048 ± 0.081; T 0.111 ± 0.067; C -0.072 ± 0.089; L 0.102 ± 0.11; V -0.191 ± 0.057; E -0.016 ± 0.095; M 0.199 ± 0.073
L9: V -0.712 ± 0.072; M -0.193 ± 0.058; S -0.729 ± 0.081; A -0.913 ± 0.091; H -1.07 ± 0.18; F -0.077 ± 0.13; I -0.741 ± 0.15; E -1.02 ± 0.097; W -0.963 ± 0.11; K -1.06 ± 0.15; T -1.29 ± 0.19; Q -0.876 ± 0.16; C -0.801 ± 0.064; R -0.999 ± 0.068; Y -0.935 ± 0.15; G -0.917 ± 0.081
E15: S -0.143 ± 0.052; K -0.869 ± 0.35; P -0.687 ± 0.068; R -0.53 ± 0.043; F -0.505 ± 0.12; V -0.36 ± 0.06; M -0.123 ± 0.085; L -0.185 ± 0.065; I -0.323 ± 0.084; G -0.433 ± 0.05; D -0.158 ± 0.076; C -0.343 ± 0.057; T -0.21 ± 0.11; W -0.657 ± 0.079; Q -0.037 ± 0.065; A -0.271 ± 0.062; N -0.492 ± 0.36
D3: K 0.162 ± 0.067; S 0.054 ± 0.05; H 0.2 ± 0.063; P -0.177 ± 0.067; T -0.118 ± 0.091; G -0.472 ± 0.098; Y 0.116 ± 0.086; N -0.074 ± 0.064; I -0.082 ± 0.1; V -0.267 ± 0.078; F 0.084 ± 0.12; L 0.133 ± 0.052; Q 0.08 ± 0.056; E -0.078 ± 0.082; R -0.064 ± 0.046; M 0.209 ± 0.08
E22: G -0.388 ± 0.054; T -0.093 ± 0.054; D -0.149 ± 0.072; H -0.394 ± 0.094; V -0.256 ± 0.048; F -0.402 ± 0.074; A -0.107 ± 0.04; Q -0.104 ± 0.063; Y -0.231 ± 0.075; W -0.743 ± 0.068; K -0.103 ± 0.052; L -0.179 ± 0.045; S -0.059 ± 0.046; I -0.854 ± 0.36; C -0.299 ± 0.072; M -0.091 ± 0.072
T6: I -0.436 ± 0.29; V -0.353 ± 0.22; A 0.146 ± 0.11
E23: D -0.155 ± 0.085; A -0.062 ± 0.051; L -0.419 ± 0.039; G -0.229 ± 0.062; M -0.318 ± 0.067; I -0.317 ± 0.083; Q -0.17 ± 0.066; C -0.409 ± 0.062; R -0.06 ± 0.039; H -0.429 ± 0.13; N -0.165 ± 0.068; P -0.95 ± 0.086; S -0.168 ± 0.047; K -0.085 ± 0.1
E4: F -0.05 ± 0.16; I 0.179 ± 0.15; W -0.582 ± 0.087; Y -0.511 ± 0.16; Q -0.619 ± 0.14; N -0.838 ± 0.17; H -0.31 ± 0.16; K -0.452 ± 0.081; P -0.619 ± 0.093; A -0.527 ± 0.078; C -0.016 ± 0.065; R -0.602 ± 0.062; S -0.148 ± 0.054; V -0.215 ± 0.062; M -0.27 ± 0.19; G -0.254 ± 0.054; D -0.334 ± 0.079; T -0.201 ± 0.066; L -0.326 ± 0.053
I20: R -0.046 ± 0.05; F -0.352 ± 0.17; C 0.015 ± 0.074; G -0.494 ± 0.065; W -0.252 ± 0.097; Y -0.273 ± 0.072; S -0.301 ± 0.062; T -0.096 ± 0.068; D -0.091 ± 0.15; L -0.124 ± 0.06; N -0.015 ± 0.097; K -0.104 ± 0.07; M 0.09 ± 0.06; P -0.617 ± 0.08; Q -0.083 ± 0.061; E -0.299 ± 0.12; A -0.111 ± 0.059; H -0.213 ± 0.16; V 0.101 ± 0.093
